Laboratory results published in PMC4737579.
Non-standard residues stand in square brackets, D forms with d. No end group written: not given here.

Target: soluble human furin (human) (UniProt P09958)
Experiment: enzyme inhibition

[dR][dR][dR][dR][dR][dR][dR][dR][dR] [nona-D-arginine]
Ki: 140 nM
